Measured values as given in publication doi:10.1101/216812.

Target: biotinylated, taxol-stabilized microtubules tethered to coverslips (TIRF binding assays)
Assay: TIRF microscopy of single particles

549SNAP-6HIS-3FLAG-KKT4 charge-reversal mutant (R123E, K132E, R154E), full length (natural protein)
fold change of average residence time against wild-type KKT4: 2 fold

549SNAP-6HIS-3FLAG-KKT4, full-length wild-type KKT4 (natural protein)
average residence time: 5.4 s
